# Results published in the supplement of paper PMC5998384.
# Tests used:
# [1] = test system: HeLa Kyoto; assay: solubility in G1/S (NP-40 vs SDS abundance) (log2 ratio); higher = more soluble; details: cell cycle stage: G1/S
# [2] = test system: HeLa Kyoto; assay: melting temperature (median over replicates), in situ; higher = more thermally stable
# [3] = test system: HeLa Kyoto; assay: solubility change mitosis vs G1/S (difference of NP-40 vs SDS log2 ratios) (log2 ratio difference); higher = more soluble in mitosis
# 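Wherever melting temperature (median over replicates), in situ is given: HeLa Kyoto cells synchronized by double thymidine or nocodazole block, proteins quantified by TMT10plex mass spectrometry, three independent biological replicates.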
# 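Wherever solubility change mitosis vs G1/S (difference of NP-40 vs SDS log2 ratios) is given: synchronized HeLa Kyoto cells (double thymidine block for G1/S, nocodazole release for mitosis), protein amounts in NP-40 versus SDS lysates quantified by mass spectrometry, three biological replicates.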
# 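Wherever solubility in G1/S (NP-40 vs SDS abundance) is given: HeLa Kyoto cells arrested at G1/S by double thymidine block, proteins quantified by TMT10plex mass spectrometry in mild NP-40 versus SDS extracts, three biological replicates.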
# GNG12, sequence (chain, as listed by the source): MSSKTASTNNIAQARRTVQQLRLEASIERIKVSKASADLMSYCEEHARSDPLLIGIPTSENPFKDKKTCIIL
# UNC13B, sequence (chain, as listed by the source): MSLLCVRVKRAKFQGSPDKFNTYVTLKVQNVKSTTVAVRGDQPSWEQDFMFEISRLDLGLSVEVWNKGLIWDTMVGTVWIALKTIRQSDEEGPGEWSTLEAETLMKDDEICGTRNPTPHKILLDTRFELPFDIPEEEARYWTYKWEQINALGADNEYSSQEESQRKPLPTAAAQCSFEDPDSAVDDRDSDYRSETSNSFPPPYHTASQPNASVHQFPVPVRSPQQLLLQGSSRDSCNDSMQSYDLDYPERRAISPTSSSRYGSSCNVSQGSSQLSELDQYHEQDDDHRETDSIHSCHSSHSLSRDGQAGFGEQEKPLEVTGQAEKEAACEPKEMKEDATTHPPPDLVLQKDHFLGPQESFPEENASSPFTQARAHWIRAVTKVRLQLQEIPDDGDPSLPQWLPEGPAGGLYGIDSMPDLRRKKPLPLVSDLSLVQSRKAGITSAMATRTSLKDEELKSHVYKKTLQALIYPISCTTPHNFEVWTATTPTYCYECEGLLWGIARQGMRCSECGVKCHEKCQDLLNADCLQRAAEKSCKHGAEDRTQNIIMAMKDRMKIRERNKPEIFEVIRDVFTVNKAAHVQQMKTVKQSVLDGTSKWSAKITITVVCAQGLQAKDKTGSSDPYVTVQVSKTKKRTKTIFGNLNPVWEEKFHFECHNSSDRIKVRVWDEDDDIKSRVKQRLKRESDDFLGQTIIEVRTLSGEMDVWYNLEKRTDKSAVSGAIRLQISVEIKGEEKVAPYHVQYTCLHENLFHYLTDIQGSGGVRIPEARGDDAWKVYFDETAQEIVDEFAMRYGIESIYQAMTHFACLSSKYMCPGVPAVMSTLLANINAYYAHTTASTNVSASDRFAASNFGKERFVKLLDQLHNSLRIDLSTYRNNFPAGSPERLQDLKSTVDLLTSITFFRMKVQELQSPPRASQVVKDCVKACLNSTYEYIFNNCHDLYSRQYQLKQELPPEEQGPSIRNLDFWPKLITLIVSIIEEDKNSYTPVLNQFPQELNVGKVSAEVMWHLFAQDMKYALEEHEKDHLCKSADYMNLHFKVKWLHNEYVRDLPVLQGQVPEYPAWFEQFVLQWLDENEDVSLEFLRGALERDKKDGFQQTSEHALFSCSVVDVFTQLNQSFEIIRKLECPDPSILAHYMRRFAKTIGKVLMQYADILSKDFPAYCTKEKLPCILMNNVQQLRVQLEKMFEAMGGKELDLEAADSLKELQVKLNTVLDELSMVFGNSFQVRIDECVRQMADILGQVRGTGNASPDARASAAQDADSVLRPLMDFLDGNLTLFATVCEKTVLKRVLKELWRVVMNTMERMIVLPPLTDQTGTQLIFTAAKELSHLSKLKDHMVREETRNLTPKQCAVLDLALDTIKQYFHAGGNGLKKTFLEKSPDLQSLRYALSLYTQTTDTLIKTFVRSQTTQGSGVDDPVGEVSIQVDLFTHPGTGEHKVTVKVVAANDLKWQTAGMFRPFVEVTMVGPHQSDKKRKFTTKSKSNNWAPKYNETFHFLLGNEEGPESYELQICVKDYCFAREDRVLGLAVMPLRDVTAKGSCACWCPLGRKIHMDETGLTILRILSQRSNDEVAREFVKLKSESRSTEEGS
Substance,solubility in G1/S (log2) [1],melting temperature ([2]; cell cycle stage: G1/S) [°C],melting temperature ([2]; cell cycle stage: mitosis) [°C],solubility change mitosis (log2) [3]
MATSTGRWLLLRLALFGFLWEASGGLDSGASRDDDLLLPYPRARARLPRDCTRVRAGNREHESWPPPPATPGAGGLAVRTFVSHFRDRAVAGHLTRAVEPLRTFSVLEPGGPGGCAARRRATVEETARAADCRVAQNGGFFRMNSGECLGNVVSDERRVSSSGGLQNAQFGIRRDGTLVTGYLSEEEVLDTENPFVQLLSGVVWLIRNGSIYINESQATECDETQETGSFSKFVNVISARTAIGHDRKGQLVLFHADGQTEQRGINLWEMAEFLLKQDVVNAINLDGGGSATFVLNGTLASYPSDHCQDNMWRCPRQVSTVVCVHEPRCQPPDCHGHGTCVDGHCQCTGHFWRGPGCDELDCGPSNCSQHGLCTETGCRCDAGWTGSNCSEECPLGWHGPGCQRPCKCEHHCPCDPKTGNCSVSRVKQCLQPPEATLRAGELSFFTRTAWLALTLALAFLLLISTAANLSLLLSRAERNRRLHGDYAYHPLQEMNGEPLAAEKEQPGGAHNPFKD [NAGPA],0.327,54.5,55.4,-0.232
UNC13B,-0.113,50.3,49.4,-0.114
MELIQDTSRPPLEYVKGVPLIKYFAEALGPLQSFQARPDDLLINTYPKSGTTWVSQILDMIYQGGDLEKCNRAPIYVRVPFLEVNDPGEPSGLETLKDTPPPRLIKSHLPLALLPQTLLDQKVKVVYVARNPKDVAVSYYHFHRMEKAHPEPGTWDSFLEKFMAGEVSYGSWYQHVQEWWELSRTHPVLYLFYEDMKENPKREIQKILEFVGRSLPEETMDFMVQHTSFKEMKKNPMTNYTTVPQELMDHSISPFMRKGMAGDWKTTFTVAQNERFDADYAEKMAGCSLSFRSEL [SULT1A3],0.432,48.5,49.2,-0.174
MDALEGESFALSFSSASDAEFDAVVGYLEDIIMDDEFQLLQRNFMDKYYLEFEDTEENKLIYTPIFNEYISLVEKYIEEQLLQRIPEFNMAAFTTTLQHHKDEVAGDIFDMLLTFTDFLAFKEMFLDYRAEKEGRGLDLSSGLVVTSLCKSSSLPASQNNLRH [ARL2BP],-0.148,50.9,53,0.0405
MEEEGVKEAGEKPRGAQMVDKAGWIKKSSGGLLGFWKDRYLLLCQAQLLVYENEDDQKCVETVELGSYEKCQDLRALLKRKHRFILLRSPGNKVSDIKFQAPTGEEKESWIKALNEGINRGKNKAFDEVKVDKSCALEHVTRDRVRGGQRRRPPTRVHLKEVASAASDGLLRLDLDVPDSGPPVFAPSNHVSEAQPRETPRPLMPPTKPFLAPETTSPGDRVETPVGERAPTPVSASSEVSPESQEDSETPAEEDSGSEQPPNSVLPDKLKVSWENPSPQEAPAAESAEPSQAPCSETSEAAPREGGKPPTPPPKILSEKLKASMGEMQASGPPAPGTVQVSVNGMDDSPEPAKPSQAEGTPGTPPKDATTSTALPPWDLPPQFHPRCSSLGDLLGEGPRHPLQPRERLYRAQLEVKVASEQTEKLLNKVLGSEPAPVSAETLLSQAVEQLRQATQVLQEMRDLGELSQEAPGLREKRKELVTLYRRSAP [PLEKHO2],0.188,53.2,51.9,0.0528
CHD8,-0.156,46.5,50.1,-0.0952
MRASLLLSVLRPAGPVAVGISLGFTLSLLSVTWVEEPCGPGPPQPGDSELPPRGNTNAARRPNSVQPGAEREKPGAGEGAGENWEPRVLPYHPAQPGQAAKKAVRTRYISTELGIRQRLLVAVLTSQTTLPTLGVAVNRTLGHRLERVVFLTGARGRRAPPGMAVVTLGEERPIGHLHLALRHLLEQHGDDFDWFFLVPDTTYTEAHGLARLTGHLSLASAAHLYLGRPQDFIGGEPTPGRYCHGGFGVLLSRMLLQQLRPHLEGCRNDIVSARPDEWLGRCILDATGVGCTGDHEGVHYSHLELSPGEPVQEGDPHFRSALTAHPVRDPVHMYQLHKAFARAELERTYQEIQELQWEIQNTSHLAVDGDQAAAWPVGIPAPSRPASRFEVLRWDYFTEQHAFSCADGSPRCPLRGADRADVADVLGTALEELNRRYHPALRLQKQQLVNGYRRFDPARGMEYTLDLQLEALTPQGGRRPLTRRVQLLRPLSRVEILPVPYVTEASRLTVLLPLAAAERDLAPGFLEAFATAALEPGDAAAALTLLLLYEPRQAQRVAHADVFAPVKAHVAELERRFPGARVPWLSVQTAAPSPLRLMDLLSKKHPLDTLFLLAGPDTVLTPDFLNRCRMHAISGWQAFFPMHFQAFHPAVAPPQGPGPPELGRDTGRFDRQAASEACFYNSDYVAARGRLAAASEQEEELLESLDVYELFLHFSSLHVLRAVEPALLQRYRAQTCSARLSEDLYHRCLQSVLEGLGSRTQLAMLLFEQEQGNST [CHPF],-0.013,53.4,52,0.15
NBEAL2,-0.103,52,–,-0.0719
MAAVFDLDLETEEGSEGEGEPELSPADACPLAELRAAGLEPVGHYEEVELTETSVNVGPERIGPHCFELLRVLGKGGYGKVFQVRKVQGTNLGKIYAMKVLRKAKIVRNAKDTAHTRAERNILESVKHPFIVELAYAFQTGGKLYLILECLSGGELFTHLEREGIFLEDTACFYLAEITLALGHLHSQGIIYRDLKPENIMLSSQGHIKLTDFGLCKESIHEGAVTHTFCGTIEYMAPEILVRSGHNRAVDWWSLGALMYDMLTGSPPFTAENRKKTMDKIIRGKLALPPYLTPDARDLVKKFLKRNPSQRIGGGPGDAADVQRHPFFRHMNWDDLLAWRVDPPFRPCLQSEEDVSQFDTRFTRQTPVDSPDDTALSESANQAFLGFTYVAPSVLDSIKEGFSFQPKLRSPRRLNSSPRAPVSPLKFSPFEGFRPSPSLPEPTELPLPPLLPPPPPSTTAPLPIRPPSGTKKSKRGRGRPGR [RPS6KB2],-0.0277,51.3,50.9,0.0325
MALLAEHLLKPLPADKQIETGPFLEAVSHLPPFFDCLGSPVFTPIKADISGNITKIKAVYDTNPAKFRTLQNILEVEKEMYGAEWPKVGATLALMWLKRGLRFIQVFLQSICDGERDENHPNLIRVNATKAYEMALKKYHGWIVQKIFQAALYAAPYKSDFLKALSKGQNVTEEECLEKIRLFLVNYTATIDVIYEMYTQMNAELNYKV [GLTP],-0.139,–,53.3,-0.117
MHQPPESTAAAAAAADISARKMAHPAMFPRRGSGSGSASALNAAGTGVGSNATSSEDFPPPSLLQPPPPAASSTSGPQPPPPQSLNLLSQAQLQAQPLAPGGTQMKKKSGFQITSVTPAQISASISSNNSIAEDTESYDDLDESHTEDLSSSEILDVSLSRATDLGEPERSSSEETLNNFQEAETPGAVSPNQPHLPQPHLPHLPQQNVVINGNAHPHHLHHHHQIHHGHHLQHGHHHPSHVAVASASITGGPPSSPVSRKLSTTGSSDSITPVAPTSAVSSSGSPASVMTNMRAPSTTGGIGINSVTGTSTVNNVNITAVGSFNPNVTSSMLGNVNISTSNIPSAAGVSVGPGVTSGVNVNILSGMGNGTISSSAAVSSVPNAAAGMTGGSVSSQQQQPTVNTSRFRVVKLDSSSEPFKKGRWTCTEFYEKENAVPATEGVLINKVVETVKQNPIEVTSERESTSGSSVSSSVSTLSHYTESVGSGEMGAPTVVVQQQQQQQQQQQQQPALQGVTLQQMDFGSTGPQSIPAVSIPQSISQSQISQVQLQSQELSYQQKQGLQPVPLQATMSAATGIQPSPVNVVGVTSALGQQPSISSLAQPQLPYSQAAPPVQTPLPGAPPPQQLQYGQQQPMVSTQMAPGHVKSVTQNPASEYVQQQPILQTAMSSGQPSSAGVGAGTTVIPVAQPQGIQLPVQPTAVPAQPAGASVQPVGQAPAAVSAVPTGSQIANIGQQANIPTAVQQPSTQVPPSVIQQGAPPSSQVVPPAQTGIIHQGVQTSAPSLPQQLVIASQSSLLTVPPQPQGVEPVAQGIVSQQLPAVSSLPSASSISVTSQVSSTGPSGMPSAPTNLVPPQNIAQTPATQNGNLVQSVSQPPLIATNTNLPLAQQIPLSSTQFSAQSLAQAIGSQIEDARRAAEPSLVGLPQTISGDSGGMSAVSDGSSSSLAASASLFPLKVLPLTTPLVDGEDESSSGASVVAIDNKIEQAMDLVKSHLMYAVREEVEVLKEQIKELIEKNSQLEQENNLLKTLASPEQLAQFQAQLQTGSPPATTQPQGTTQPPAQPASQGSGPTA [TSC22D1],-0.382,54.4,53.1,-0.0765
GNG12,-1.84,52.4,54,0.506
MASSFLPAGAITGDSGGELSSGDDSGEVEFPHSPEIEETSCLAELFEKAAAHLQGLIQVASREQLLYLYARYKQVKVGNCNTPKPSFFDFEGKQKWEAWKALGDSSPSQAMQEYIAVVKKLDPGWNPQIPEKKGKEANTGFGGPVISSLYHEETIREEDKNIFDYCRENNIDHITKAIKSKNVDVNVKDEEGRALLHWACDRGHKELVTVLLQHRADINCQDNEGQTALHYASACEFLDIVELLLQSGADPTLRDQDGCLPEEVTGCKTVSLVLQRHTTGKA [ACBD6],0.393,48,49.2,0.0566
